From article PMC4613515

Molecular target: His6–WT cyclin Y (Sf21) (human) (UniProt Q8ND76)
Assay: co-purification on Ni-NTA–agarose, immunoblot; His6–cyclin Y (WT or S326A) expressed in Sf21 cells and affinity-purified; defined amounts immunoblotted for 14-3-3

UniProt Q8ND76, sequence (Q8ND76 whole entry): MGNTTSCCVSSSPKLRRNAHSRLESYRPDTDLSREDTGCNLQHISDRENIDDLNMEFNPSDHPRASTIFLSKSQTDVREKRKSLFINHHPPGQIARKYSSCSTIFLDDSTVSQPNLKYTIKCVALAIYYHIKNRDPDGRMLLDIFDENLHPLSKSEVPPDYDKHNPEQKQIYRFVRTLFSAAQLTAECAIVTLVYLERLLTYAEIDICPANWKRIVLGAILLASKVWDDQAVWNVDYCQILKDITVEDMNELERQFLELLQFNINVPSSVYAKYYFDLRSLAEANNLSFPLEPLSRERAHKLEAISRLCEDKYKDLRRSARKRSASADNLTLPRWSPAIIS

- amount of co-purified 14-3-3 against that with COS-1-derived WT cyclin Y: 100 fold less
Substance: 14-3-3 proteins (endogenous in Sf21 cells) (natural protein)
